{"source": "paper PMC6089081", "about": "(Redox Biology, 2018)", "proteins": {"B1": {"name": "GRPEL2 (natural protein)", "chain": "STATQRTAGEDCRSEDPPDELGPPLAERALRVKAVKLEKEVQDLTVRYQRAIADCENIRRRTQRCVEDAKIFGIQSFCKDLVEVADILEKTTECISEESEPEDQKLTLEKVFRGLLLLEAKLKSVFAKHGLEKLTPIGDKYDPHEHELICHVPAGVGVQPGTVALVRQDGYKLHGRTIRLARVEVAVESQRRL"}}, "molecular_target": "the molecule itself", "test": "native gel or EMSA"}
{"protein": "B1", "values": [{"measurement": "stoichiometry N", "result": 2}]}
